# Experimental data published in paper PMC5701251.
# Biological target: gp49d, deletion mutant of the phage LKA1 tailspike protein LKA1gp49 without the N-terminal particle-binding domain (residues 1-167) (Pseudomonas phage LKA1)
# Experiment: crystal structure; gp49d crystallised in 8% PEG 6000, 0.8 M NaCl, 0.1 M Na acetate pH 3.5 at 18 °C, 20 mg/ml; molecular replacement with gp61d; homotrimer
substance,measurement,value
"gp49d, deletion mutant of the phage LKA1 tailspike protein LKA1gp49 without the N-terminal particle-binding domain (residues 1-167) (domain or fragment)",stoichiometry N,3
